Assay results from article PMC4431184, “The Use of the LanthaScreen TR-FRET CAR Coactivator Assay in the Characterization of Constitutive Androstane Receptor (CAR) Inverse Agonists” (Sensors (Basel, Switzerland), 2015).
Ends that are not written are not given here.

Target: T1, glutathione-S-transferase (GST) tagged human CAR ligand-binding domain (LBD) (human)
T1 construct: Component of a bought kit; It was held in the assay by a terbium-labelled anti-GST antibody (a tool only); also called CAR LBD; CAR-LBD
T1 sequence (Q14994 whole entry, looked up): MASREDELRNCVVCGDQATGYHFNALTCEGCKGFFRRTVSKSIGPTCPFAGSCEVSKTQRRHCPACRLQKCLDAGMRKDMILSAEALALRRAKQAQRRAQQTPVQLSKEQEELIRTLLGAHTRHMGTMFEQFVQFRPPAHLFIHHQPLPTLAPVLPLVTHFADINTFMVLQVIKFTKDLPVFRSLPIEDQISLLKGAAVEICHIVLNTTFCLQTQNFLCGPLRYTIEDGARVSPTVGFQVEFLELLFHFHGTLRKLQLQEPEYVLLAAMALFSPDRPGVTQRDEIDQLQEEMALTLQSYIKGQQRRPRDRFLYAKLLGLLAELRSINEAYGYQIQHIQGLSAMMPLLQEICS
Experiment: FRET or BRET; LanthaScreen TR-FRET as a1, with the agonist CITCO 10 uM; three orders of adding the reagents (Figure 2A, 2B, 2C standard)
Conditions: both partners purified

Binder: EAEEPSLLKKLLLAPANTQ (also: fluorescein label, position not given here) [fluorescein-labeled PGC1α coactivator peptide]
- fold of TR-FRET ratio with CITCO 10 uM over vehicle control (order: CAR LBD, peptide and antibody, CITCO): 1.94 fold
- fold of TR-FRET ratio with CITCO 10 uM over vehicle control (order: CITCO, peptide and antibody, CAR LBD): 2.26 fold
- fold of TR-FRET ratio with CITCO 10 uM over vehicle control (standard order): 2.56 fold
